Data set [1] has as its target FITC-labeled collagen (Elastin #CF308).
Data set [2] deals with insoluble collagen conjugated to fluorescein isothiocyanate (FITC) (Anaspec #85111 or Sigma Collagen #C4361).
Data set [3] has as its target FITC-labeled collagen (Sigma #C4361).
In data set [4] the target is Soluble rat tail collagen Type I, P02454.

The values below come from patent US20100003237.

Chain of Soluble rat tail collagen Type I, P02454 (P02454 152-1207, chain 1 of 2): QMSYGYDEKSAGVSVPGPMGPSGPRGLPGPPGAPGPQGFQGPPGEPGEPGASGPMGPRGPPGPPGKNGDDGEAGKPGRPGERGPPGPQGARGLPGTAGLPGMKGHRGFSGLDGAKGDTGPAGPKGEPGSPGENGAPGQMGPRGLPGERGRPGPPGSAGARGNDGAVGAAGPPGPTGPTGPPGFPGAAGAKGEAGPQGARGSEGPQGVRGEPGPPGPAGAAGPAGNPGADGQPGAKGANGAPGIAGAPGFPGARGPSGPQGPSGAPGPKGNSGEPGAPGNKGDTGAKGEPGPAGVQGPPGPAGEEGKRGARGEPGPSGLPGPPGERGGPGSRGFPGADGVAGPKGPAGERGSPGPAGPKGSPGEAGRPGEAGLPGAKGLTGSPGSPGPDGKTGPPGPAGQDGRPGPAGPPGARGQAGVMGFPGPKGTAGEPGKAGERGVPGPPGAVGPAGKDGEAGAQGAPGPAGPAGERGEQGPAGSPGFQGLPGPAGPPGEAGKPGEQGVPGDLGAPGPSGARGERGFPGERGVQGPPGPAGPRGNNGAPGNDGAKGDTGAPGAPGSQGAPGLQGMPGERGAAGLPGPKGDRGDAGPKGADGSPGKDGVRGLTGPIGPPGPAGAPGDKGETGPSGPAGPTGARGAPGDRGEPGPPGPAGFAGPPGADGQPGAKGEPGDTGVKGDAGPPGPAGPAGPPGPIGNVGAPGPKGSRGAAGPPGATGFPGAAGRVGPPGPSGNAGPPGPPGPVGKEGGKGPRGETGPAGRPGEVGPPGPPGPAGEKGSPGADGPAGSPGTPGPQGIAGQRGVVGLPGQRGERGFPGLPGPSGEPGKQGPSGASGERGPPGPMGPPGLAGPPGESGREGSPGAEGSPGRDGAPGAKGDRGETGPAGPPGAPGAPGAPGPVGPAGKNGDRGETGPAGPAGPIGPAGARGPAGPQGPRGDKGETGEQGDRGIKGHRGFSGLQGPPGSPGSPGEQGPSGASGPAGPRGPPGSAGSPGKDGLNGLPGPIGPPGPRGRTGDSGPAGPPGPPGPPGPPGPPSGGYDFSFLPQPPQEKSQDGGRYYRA
Chain of Soluble rat tail collagen Type I, P02454 (chain, as listed by the source, chain 2 of 2): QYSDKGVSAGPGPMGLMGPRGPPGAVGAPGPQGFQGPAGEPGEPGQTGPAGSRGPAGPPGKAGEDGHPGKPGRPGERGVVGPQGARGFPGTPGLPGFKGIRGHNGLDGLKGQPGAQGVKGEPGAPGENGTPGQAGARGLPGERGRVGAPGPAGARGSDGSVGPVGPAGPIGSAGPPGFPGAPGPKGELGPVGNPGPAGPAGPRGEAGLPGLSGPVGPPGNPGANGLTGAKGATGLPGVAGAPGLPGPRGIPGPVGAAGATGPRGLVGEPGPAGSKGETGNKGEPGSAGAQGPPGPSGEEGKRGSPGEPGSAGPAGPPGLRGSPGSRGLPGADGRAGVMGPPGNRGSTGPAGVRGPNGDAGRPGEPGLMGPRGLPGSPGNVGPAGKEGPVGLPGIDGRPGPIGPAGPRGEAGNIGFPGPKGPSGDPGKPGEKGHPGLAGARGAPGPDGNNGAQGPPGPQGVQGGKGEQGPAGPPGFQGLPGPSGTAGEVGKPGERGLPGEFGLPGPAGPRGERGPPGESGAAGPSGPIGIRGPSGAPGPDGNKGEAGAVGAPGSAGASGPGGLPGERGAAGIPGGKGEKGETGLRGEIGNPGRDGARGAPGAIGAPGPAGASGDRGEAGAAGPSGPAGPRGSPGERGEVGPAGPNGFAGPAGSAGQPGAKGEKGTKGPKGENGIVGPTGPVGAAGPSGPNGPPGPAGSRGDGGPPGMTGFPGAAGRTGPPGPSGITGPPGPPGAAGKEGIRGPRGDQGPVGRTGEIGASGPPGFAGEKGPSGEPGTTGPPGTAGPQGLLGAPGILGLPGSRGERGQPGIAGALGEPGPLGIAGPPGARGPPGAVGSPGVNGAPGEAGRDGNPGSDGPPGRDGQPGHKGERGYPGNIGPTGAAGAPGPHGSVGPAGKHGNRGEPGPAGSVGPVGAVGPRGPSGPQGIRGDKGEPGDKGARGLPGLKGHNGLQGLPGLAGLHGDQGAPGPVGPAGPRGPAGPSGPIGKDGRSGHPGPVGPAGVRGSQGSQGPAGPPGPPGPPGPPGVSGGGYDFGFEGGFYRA

B1: Wild type hMMP-1 clone BAP006-2 (expressed in CHO-S cells), activated with AMPA (protein)
chain: FVLTEGNPRWEQTHLTYRIENYTPDLPRADVDHAIEKAFQLWSNVTPLTFTKVSEGQADIMISFVRGDHRDNSPFDGPGGNLAHAFQPGPGIGGDAHFDEDERWTNNFREYNLHRVAAHELGHSLGLSHSTDIGALMYPSYTFSGDVQLAQDDIDGIQAIYGRSQNPVQPIGPQTPKACDSKLTFDAITTIRGEVMFFKDRFYMRTNPFYPEVELNFISVFWPQLPNGLEAAYEFADRDEVRFFKGNKYWAVQGQNVLHGYPKDIYSSFGFPRTVKHIDAALSEENTGKTYFFVANKYWRYDEYKRSMDPGYPKMIAHDFPGIGHKVDAVFMKDGFFYFFHGTRQYKFDPKTKRILTLQKANSWFNCRKN
As to B1, in data set [1], the RFU, 37° C. (fluorescence of supernatant after 144 hours, replicate 1) worked out at 1730 RFU; the RFU, 37° C. (fluorescence of supernatant after 144 hours, replicate 2) was 2300 RFU; the RFU, Avg 37° C. (fluorescence of supernatant after 144 hours) was found to be 2010 RFU. Also, the “cleavage of insoluble collagen (7.5% SDS polyacrylamide gel, Coomassie Blue)” value in data set [2] is “after 24 hours incubation at 25 °C or 37° C., hMMP-1 partially cleaved the α1(I) and α2(I) collagen chains into ¾ and ¼ length digestion products for all hMMP-1 proteins tested”. Further, in data set [3], the RFU, 37° C. (fluorescence of supernatant after 144 hours, replicate 1) came to 1270 RFU; the RFU, 37° C. (fluorescence of supernatant after 144 hours, replicate 2) turned out to be 1280 RFU; the RFU, Avg 37° C. (fluorescence of supernatant after 144 hours) was found to be 1270 RFU.

B2: hMMP-1 (purchased from R&D Systems, #901-MP), activated with AMPA (protein)
chain: FVLTEGNPRWEQTHLTYRIENYTPDLPRADVDHAIEKAFQLWSNVTPLTFTKVSEGQADIMISFVRGDHRDNSPFDGPGGNLAHAFQPGPGIGGDAHFDEDERWTNNFREYNLHRVAAHELGHSLGLSHSTDIGALMYPSYTFSGDVQLAQDDIDGIQAIYGRSQNPVQPIGPQTPKACDSKLTFDAITTIRGEVMFFKDRFYMRTNPFYPEVELNFISVFWPQLPNGLEAAYEFADRDEVRFFKGNKYWAVQGQNVLHGYPKDIYSSFGFPRTVKHIDAALSEENTGKTYFFVANKYWRYDEYKRSMDPGYPKMIAHDFPGIGHKVDAVFMKDGFFYFFHGTRQYKFDPKTKRILTLQKANSWFNCRKN
In data set [1], B2 returned an RFU, 37° C. (fluorescence of supernatant after 144 hours, replicate 1) of 3490 RFU; an RFU, 37° C. (fluorescence of supernatant after 144 hours, replicate 2) of 2980 RFU; an RFU, Avg 37° C. (fluorescence of supernatant after 144 hours) of 3240 RFU. Besides, in data set [2], the “cleavage of insoluble collagen (7.5% SDS polyacrylamide gel, Coomassie Blue)” value was “after 24 hours incubation at 25 °C or 37° C., hMMP-1 partially cleaved the α1(I) and α2(I) collagen chains into ¾ and ¼ length digestion products for all hMMP-1 proteins tested”. In data set [3], this protein showed an RFU, 37° C. (fluorescence of supernatant after 144 hours, replicate 1) of 1160 RFU; an RFU, 37° C. (fluorescence of supernatant after 144 hours, replicate 2) of 1140 RFU; an RFU, Avg 37° C. (fluorescence of supernatant after 144 hours) of 1150 RFU.

B3: Wild type hMMP-1 clone BAP006-10 (pET303CTHis, expressed in BL21 (DE3) E. coli), activated with AMPA (protein)
chain: FVLTEGNPRWEQTHLTYRIENYTPDLPRADVDHAIEKAFQLWSNVTPLTFTKVSEGQADIMISFVRGDHRDNSPFDGPGGNLAHAFQPGPGIGGDAHFDEDERWTNNFREYNLHRVAAHELGHSLGLSHSTDIGALMYPSYTFSGDVQLAQDDIDGIQAIYGRSQNPVQPIGPQTPKACDSKLTFDAITTIRGEVMFFKDRFYMRTNPFYPEVELNFISVFWPQLPNGLEAAYEFADRDEVRFFKGNKYWAVQGQNVLHGYPKDIYSSFGFPRTVKHIDAALSEENTGKTYFFVANKYWRYDEYKRSMDPGYPKMIAHDFPGIGHKVDAVFMKDGFFYFFHGTRQYKFDPKTKRILTLQKANSWFNCRKNHHHHH
In data set [1], B3 registered an RFU, 37° C. (fluorescence of supernatant after 144 hours, replicate 1) of 2670 RFU; an RFU, 37° C. (fluorescence of supernatant after 144 hours, replicate 2) of 3060 RFU; an RFU, Avg 37° C. (fluorescence of supernatant after 144 hours) of 2860 RFU. Also, the “cleavage of insoluble collagen (7.5% SDS polyacrylamide gel, Coomassie Blue)” value in data set [2] is “after 24 hours incubation at 25 °C or 37° C., hMMP-1 partially cleaved the α1(I) and α2(I) collagen chains into ¾ and ¼ length digestion products for all hMMP-1 proteins tested”. In data set [3], this protein displayed an RFU, 37° C. (fluorescence of supernatant after 144 hours, replicate 1) of 1290 RFU; an RFU, 37° C. (fluorescence of supernatant after 144 hours, replicate 2) of 1340 RFU; an RFU, Avg 37° C. (fluorescence of supernatant after 144 hours) of 1310 RFU.

B4: cathepsin S (R&D systems, activated) (protein)
chain: LPDSVDWREKGCVTEVKYQGSCGACWAFSAVGALEAQLKLKTGKLVSLSAQNLVDCSTEKYGNKGCNGGFMTTAFQYIIDNKGIDSDASYPYKAMDQKCQYDSKYRAATCSKYTELPYGREDVLKEAVANKGPVSVGVDARHPSFFLYRSGVYYEPSCTQNVNHGVLVVGYGDLNGKEYWLVKNSWGHNFGEEGYIRMARNKGNHCGIASFPSYPEI
As to B4, the “degradation of soluble rat tail collagen Type I (1 hour at 37° C., SDS-Page gels, Coomassie Blue staining)” value in data set [4] is “Cathepsins B, D and S showed some slight degradation of rat collagen at the manufacture specified pH and no degradation of rat collagen at pH 8.0”.
